Experimental data taken from a protein production outcome set (Wang et al. 2014).

Experiment: label from the status in PepcDB records

Row | Sequence | protein production
1 | MRPAPSIVEVVAAIIIGSDGSFLLARRPEGKPYAGYWEFPGGKVNPEESLLRALKRELLEELGIHVKHAYPWITRTFTYPHARVRLHFYRVVEWHGEPHPHEDQELSWQFADNVSVEPLLPANAPVLRALALPPVYGITNAAEWGPQIAAARIGHALQKGLRLVQLREKGMRSKALDAFAREVTALAHHYGARILVNSGTGNESLCQELDMDGIHFTSADLMNLSKRPDVEWCAASCHNAEELFRAEQLEMDFAVLAPVLPTLSHPDSPVLGWRKLARIIHGSAIPVYALGGLQSEDLAIAWEHGAHGIALMRRIEQVRGTGQKA | failed
2 | MRPKVSVALATYNGEKYIEEQLESIIKQTRAPDELVICDDCSNDETINIITKKIKNAHFDVKLVSNDKNIGYVQNFSKALEMSSGDIVFLCDQDDVWLSDKIEFIINKFNTRPDIQLLIHDVDYCKEDLTPIGQTKLQRMESNFDIESDYVVGMATAVRRSFLVHCLPVPSAPEVTHDEWLHDCARVLGCKGIVREVLALYRRHSLNVTAPSRLNVDFVTTRHYFGNESLAFLKLFRMETDLGSPDISPLVQWLDSRKMVLLDNGFSSEDRINTFIQYEEKRLRARNSRQSILRLDRWKRLFPIYDLYRSGGYHYYCGWKSALKDLLRTYALEHHHHHH | not failed
3 | MRPLAAILALPILEIALFVTIGGAIGLLATLLIIFGTAALGVFLLRRQGVEMQAALQMPRRMDPLALMADGAAVSLAAALLILPGFFTDTVGLLLLIPPVRRALIRRLGRNVQVRSTTWRGPVRDDAPIEADYHEVEPVRDPLAPPSQPPGSSGWTRH | failed
4 | MRPPLIERYRNLLPVSEKTPVISLLEGSTPLIPLKGPEEARKKGIRLYAKYEGLNPTGSFKDRGMTLAVSKAVEGGAQAVACASTGNTAASAAAYAARAGILAIVVLPAGYVALGKVAQSLVHGARIVQVEGNFDDALRLTQKLTEAFPVALVNSVNPHRLEGQKTLAFEVVDELGDAPHYHALPVGNAGNITAHWMGYKAYHALGKAKRLPRMLGFQAAGAAPLVLGRPVERPETLATAIRIGNPASWQGAVRAKEESGGVIEAVTDEEILFAYRYLAREEGIFCEPASAAAMAGVFKLLREGRLEPESTVVLTLTGHGLKDPATAERVAELPPPVPARLEAVAAAAGLL | not failed
5 | MRPSAEALRDRPRCGIRPSMDYYDLGRHGRPVTTSSPEAQRWFDRGLVWTYAFHHEEAVACFEAAVAADPDCAMAHWGIAHALGPNYNKPWDAFDTEELTRTVDRTHAAVERAHALAGRATPAERALIDALRARYPQASAVEDCSVWNAPYADGMRAVYELAPDDLDVAALYADALMNLTPWQLWDLRTGLPAEGARTLAAKEVLDRALAAEGGRDHPGVVHLYIHLMEMSPTPEAALAVADRLRGLVPDAGHLLHMPSHLEVLCGDYRRVVSDNEAAIAADEKCLARSGAMNFYTLYRAHNHHFKIYGAMFLGRYEVALDAAARLEASVPEALLRVESPPMADWLEAFLAMRVHVLIRFGRWTDILALPLPDDPRLYCVTTAMLHYARGVALSATGRVAEAETERDLFRAAVDRVPGSRTLFNNTCADILAIASAMLDGELEYRRGNHTAAFAALERSVELDDNLPYDEPWGWMQPTRHAYGALLLEQGRTAEAEAVYRADLGLDDTLPRPLQHPNNVWALHGLHECLVRLGRAGEVRIVAQQLRFAAALADVPVEASCFCRLGTAPAAGGDAGCCATGQ | failed
6 | MRPSAIVLAGGKEAWAERFGVGSKALVPYRGRPMVEWVLEALYAAGLSPVYVGENPGLVPAPALTLPDRGGLLENLEQALEHVEGRVLVATGDIPHLTEEAVRFVLDKAPEAALVYPIVPKEAVEARFPRTKRTYARLREGTFTGGNLLLLDKSLFRKALPLARRVVALRKRPLALARLVGWDVLLKLLLGRLSLAEVEARAQRILGVEARALVTPYPEVGVDVDREEDLVS | not failed
7 | MRPTARNLAPLLAVLCAPPALLAGCGHAEPRPRAAAQDRDGLSALWSYYRYTHVQGGRVAALDEGGVTTSEGQGYAMLRAVWMDDRATLDAVWRWTRENLAVREDRLLAWRWLDGKVKDRNAATDADQDVALALVLASRRFGDPRYLEAARPLLADIWAREVIRAGGRWLPTGGNWAPAERYPTLHVAYLAPYAYQVFADVDPERPWAELVESSYQVLRFLMIEKGLALPPERIWVDPRTGELLLARPGGQPDAFGYDAVPVYWRVALDARWFGRRGEAELRARLLRFPAEAFRDEGRLRERYTTSGRPLSELDGLPHLASVQALAQLEDPELARAMRASKLDALFDRALSGEATPYYLHNWLWFGRALEAGLLRRFDEPLAFLSSLDWGAFRDRFPLLPVALAVVLAPLARRLWPARAALVALALGLSIRYLAWRAGSTLNFVEPLGPALSLALLAAEAYALSTVALLVVQVGLRHRARPPEPPLGAGEPHPSVDVMVPIYSEPLDILDKTLAACAALRYPRKTIVVCDDSHREEVARLAAEHGARYLAGPRRHAKAGNLNAALARTDGELVVVFDTDHVPTAAFLERTVPCFRDPRLGVVQTPHHFYNPDVFQRALGAPASVPNEADLFNHAIQGGRDRWGGAFFVGSGAVFRREALASVGGFHLLSITEDIHTSQKLHAGGWRTRFVDEDLAAGLSAEDLASYVVQRRRWMLGCLQIFFRDNPLLQRGLPLRHRLGYLASLWYFFFPLARLVFFATPLAYLLFHLHPLFAELPVLLAYLVPHLVAAPLAASALVPGWPRLLWGGLYEGAVAFPLARATLDLLLPRRLGFKVTPKGVRSERRRFDLRTSAFTLAAAAVGLLAIAKGAAELWAFGIEVEAYAFNLAWAGANLVSVLLALLVAWERPQRREDERIRRRVPVRLEAPGLSLEASTLDLARGGAAVALPPGAALPAEVEVTFDGPEGLRLRARVAYVEPVDGAPRAGLAFQGVGAAEARALVRIAFSADGAHAGAHDGRSRWQAAMAWHLLAGLWRAVRPLRPRRRLGARRRTLRPLRLCGAGRACRALAVDASAGGLGLVAAGARGAIPAPGTALALLAPEGIGWARVVHARRILPGLWRLGLALQAEPVPGAEPHAYLAA | failed
8 | MRPVLLLCCLFLSATAQAEDCSPQTSVGSWCELPLAALHPTQQNVGLLQVEDDQAKLAGKKPKALERYLRKKEIPVVIGPGGRFYLTDRHHLSSALWRLDPKQGVPVKVIGRLPQASDFWEKMQENHWVWLHDARGAEIPPEALPDALAGLGDDPYRALAGYAEDENAFDKDRQSYFIEFHWARYFGERMHWRPISRATLPDDLKQALRLACEPAARELPGYRQDCPHLEHHHHHH | failed
9 | MRQATMDFSSSSVFDQHKGDSSEEVDLTMVYQAASNGDVNSLTAVIREDPSILECCDSEGCTPLMHAVSGRQVDTVKLLLKMGANINTQDAYGRTSLCLATYLGWLEGCVSLLRNGAKHNIPDKNGRLPLHAATAEPDVRLLIVLLQQSSLSEINHQDTEGMTPLHWAAFHNRPQHTQMLLKKGADPTLVDKDFKTALHWAVQYGRSRVACQDVLGHAQGPGRASQETTISVSCQHALLGISNIYNKAGRITEASSQQLTSDFRTPLHWAAAAGKAECVQSLLDLGMDSNLRDINESTPLAYALYCGHTACVRLLSREGRAEPARPLPSQNSQPQKKEGRFSVLNQIFCKNKKEEQKAHQKEQSRARPKEEDTSEVNDIIATFDSVVDTNCQDQPGDQVDMVVFKKRTSENSKYLLPEKKSLARKGLPPIRTQSLPPITLGSNFLTASHGATSHAGLNSGLQHTAQRSQKSRSEQDLLNNRTGCQVSLDNPWKGDTRQAFSCKAWTVSSSDKLLDRMFTGQPGHQELSGPPHLPHLPNPSPGQGLQHLSPNRPKVRDFPFTRNSLAPLPDQKFLSGEPLRTNRVLPAIPSQRGHDPPAEESEWSSSPTHDEN | failed
10 | MRQFKTESKKLLDLMINSIYTNKEIFLRELISNASDAVDKLNFKSLQDPSVKIDQGDLAIRVSFDKDARTITISDNGIGMTAEELERNLGTIAHSGSEEFKTENAEQQGSDVDIIGQFGVGFYSAFMVASHVKVVSRAYGEDVAHVWESDGLEGYTIEDGERAEHGTDVILTLRENEKLDADGEAETYDRFLTEWGLKSLIQQYSNYVRYPIQMMVSKSRQKPKPEDAGDDYKPEYEDYQELETVNSMTPIWKKRSSDVEQKDYDEFYKSTFHDFDDPARTISFHAEGTLEYDALLFVPGRAPFDLYSKDYEKGLSLYSSNVLIMEKCDDLLPDYYNFVRGVVDSADVSLNISRETLQQNRQLKAIAKRVEKKITADLEDMRDNDREAYEKFFENFGRGLKYGIYSSYGMKADELADLLLFWSAKEQKMITLAEYAKGMPEDQKAIYYAAGDSRERLAKMPVVKGVLDRGYDVLLLTQDVDEFTFQAMREYVAADMPKIYEDDAAREAAEKAVADGAEPEVEDRHLELKNVATGDLDLATEDEKKEAEDATKENEDLFSAMKEALGDKVEKVAVSARLTDAPACITTEGPLSLEMEKVLQKGPEGAPDGMPKSQRVLELNAKHPVFDKLVAAQKAGDADKIKQYSGLLYDQALLVEGILPEDPVAFAAAVCNLM | failed
11 | MRQGEPGSPFSYLPVYQGPAVMSLRIFYHPLYSALTLPARHRFPLAKYQALFERLGSLGYPLAEAAPATPEQIKRVHDAAYVEAALAGTLDADAIRQLGFPWSPLLMERTLRSVGATLAASRHALEQGCGLQISGGYHHAHRDVGSGFCLFNDLVIAAQVCLDEGRCEQVLIVDLDVHQGDGSAALCQGRRDIITLSLHGEHNFPRYKPASHMDFPLPSGMADDAYLTTLAEALNLALRLYAPDLILYQAGVDVHKDDELGYLALSDEGIRQRDAMVFDCALRHGLPIAAVPGGGYRRDWQQLIPLHMSLFEEAKKRYG | failed
12 | MRQHLSLFPFILFLLLAFSYVGCRTVRQTPKQSERYVVVLSLDGFRPDYTDRARTPALDRMAQEGLSGSLQPCFPSLTFPNHYSMATGLYPDHHGIVANEFVDSLLGIFRISDRKAVETPGFWGGEPVWNTAARQGIRTGVYFWVGSETAVNGNRPWRWKKFSSTVPFRDRADSVIAWLGLPEKERPRLLMWYIEEPDMIGHSQTPESPLTLAMVERLDSVVGYFRKRLDSLPIAAQTDFIIVSDHGMATYENEKCVNLSHYLPADSFLYMATGAFTHLYPKPSYTERAYEILRAIPHISVYRKGEVPKRLRCGTNPRLGELVVIPDIGSTVFFAINEDVRPGAAHGYDNQAPEMRALLRAVGPDFRPGSRVENLPNITIYPLICRLLGIEPAPNDADETLLNGLIRDKRP | failed
13 | MRQHWRMRHLALACFLLAPGAALASDCPTAPDHSERIAHLIEDIRAAPNEMQARTISNRMWEIWADAPDEAAQAILDNGMSRRRAWDLLGALSEFDRLVAYCPDYAEGYNQRAFANFLRQDFAAALIDLDRALALSPNHVAAMSGRALTLMGLGRIDEARSVLNQALELNPWLPERGLVAPGGPLEPKGKDI | failed
14 | MRQKETTATTRFSLLPGSITRFFLLLIIVLLVTMGVMVQSAVNAWLKDKSYQIVDITHAIQKRVDTWRYVTWQIYDNIAATTSPSSGEGLQETRLKQDVYYLEKPRRKTEALIFGSHDNSTLEMTQRMSTYLDTLWGAENVPWSMYYLNGQDNSLVLISTLPLKDLTSGFKESTVSDIVDSRRAEMLQQANALDERESFSNMRRLAWQNGHYFTLRTTFNQPGHLATVVAFDLPINDLIPPGMPLDSFRLEPDATATGNNENEKEGTDSVSIHFNSTKIEISSALNSTDMRLVWQVPYGTLLLDTLQNILLPLLLNIGLLALALFGYTTFRHFSSRSTESVPSTAVNNELRILRAINEEIVSLLPLGLLVHDQESNRTVISNKIADHLLPHLNLQNITTMAEQHQGIIQATINNELYEIRMFRSQVAPRTQIFIIRDQDREVLVNKKLKQAQRLYEKNQQGRMTFMKNIGDALKEPAQSLAESAAKLNAPEGKQLANQADVLVRLVDEIQLANMLADDSWKSETELFSVQDLIDEVVPSVLPAIKRKGLQLLINNHLKAHDMRRGDRDALRRILLLLMQYAVTSTQLGKITLEVDQDESSEDRLTFRILDTGEGVSIHEMDNLHFPFINQTQNDRYGKADPLAFWLSDQLARKLGGHLNIKTRDGLGTRYSVHIKMLAADPEVEEEEERLLDDVCVMVDVTSAEIRNIVTRQLENWGATCITPDERLISQDYDIFLTDNPSNLTASGLLLSDDESGVREIGPGQLCVNFNMSNAMQEAVLQLIEVQLAQEEVTESPLGGDENAQLHASGYYALFVDTVPDDVKRLYTEAATSDFAALAQTAHRLKGVFAMLNLVPGKQLCETLEHLIREKDVPGIEKYISDIDSYVKSLL | failed
